In patent US20250208146A1 (UNIVERSITY OF FLORIDA RESEARCH FOUNDATION, published 2025):

Columns and labels:
[1] = target: T1, Z Alpha-1 Antitrypsin (Z-AAT) (human, UniProt P01009 25-418); assay: BLI (Octet): antibody from hybridoma supernatant loaded on the biosensor at 15ug/mL, ZAAT 500nM in HEPES buffer, association 300.81 s, dissociation 800.02 s, one concentration; Full R^2 0.7794
T1 construct: In the assays the protein was Z-AAT purified from plasma of Pi*ZZ patients, or Z-AAT in Z/Z plasma; also called Z-variant of alpha-1 antitrypsin; Z-AAT protein variant

[2] = target: T1, Z Alpha-1 Antitrypsin (Z-AAT); assay: BLI (Octet): antibody from hybridoma supernatant loaded on the biosensor at 15ug/mL, ZAAT 500nM in HEPES buffer, association 300.81 s, dissociation 800.02 s, one concentration; column head kdis(1/s); Full R^2 0.7794

T1 sequence (P01009 25-418 E366K limits assumed): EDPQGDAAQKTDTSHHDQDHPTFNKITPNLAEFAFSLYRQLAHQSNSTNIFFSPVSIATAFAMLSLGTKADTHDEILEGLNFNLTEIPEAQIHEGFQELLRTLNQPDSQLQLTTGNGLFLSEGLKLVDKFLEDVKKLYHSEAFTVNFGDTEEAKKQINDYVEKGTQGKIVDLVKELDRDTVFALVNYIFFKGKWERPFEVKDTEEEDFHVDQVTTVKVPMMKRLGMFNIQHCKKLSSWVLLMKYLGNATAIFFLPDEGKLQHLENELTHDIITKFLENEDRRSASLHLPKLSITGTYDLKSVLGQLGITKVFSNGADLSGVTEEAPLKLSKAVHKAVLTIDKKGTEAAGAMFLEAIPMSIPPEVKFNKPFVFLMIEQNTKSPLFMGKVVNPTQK

B1: HL2440 (antibody, V domains shown)
VH: QVQLQQPGAELVKPGASVKMSCKASGYTFTSYWITWVKQRPGQGLEWIGDIYPGSGSTNYNEKFKNKATLTVDTSSSTAYMQLSSLTSEDSAVYYCAAAVKGFAYWGQGTLVTVSA
VL: DIVMTQSHKFMSTSVGDRVSITCKASQDVGTAVAWYQQKPGQSPKLLIYWASTRHTGVPDRFTGSGSGTDFTLTISNVQSEDLADYFCQQYSTYPLTFGSGTKLEIK
notes: Mouse monoclonal from a hybridoma, used as supernatant or purified; also called Z-specific antibody HL2440; ZAAT mAb
B1 gave a Kd [1] of 37.6 nM, a kon [1] of 33200 M⁻¹ s⁻¹ and a koff [2] of 0.00125 s⁻¹.
